Measurements published in patent US5318897.

T1: Boc-L-R-R-MCA
T1 sequence (peptide, N-terminal Boc; C-terminal methylcoumarinamide (MCA)): LRR

T2: Z-R-R-MCA
T2 sequence (peptide, N-terminal Z; C-terminal methylcoumarinamide (MCA)): RR

T3: vasoactive intestinal peptide (VIP)
T3 sequence (peptide, C-terminal amide (--CO--NH2)): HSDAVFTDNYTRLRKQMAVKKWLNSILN


How the values were obtained:
[1] = biological target: T1, Boc-L-R-R-MCA
[2] = biological target: P-F-R-MCA
[3] = biological target: T2, Z-R-R-MCA
[4] = biological target: T3, vasoactive intestinal peptide (VIP)
[5] = biological target: T3, vasoactive intestinal peptide (VIP); test: binding studies under conditions that did not permit VIP hydrolysis (high ionic strength)

| fluorescence of the leaving group methylcoumarinamide [1] | fluorescence of the leaving group methylcoumarinamide [2] [units] | fluorescence of the leaving group methylcoumarinamide [3] | Km [4] [nM] | kcat [4] [s⁻¹] | Kd [5] [nM] | Molecule |
| --- | --- | --- | --- | --- | --- | --- |
| 263 units | 194 | 179 units |  |  |  | bovine pancreatic trypsin (from UniProt P00760) (enzyme) |
| < 1 unit |  | < 1 unit | 2 | 1.33e-06 | 3.4 | monoclonal antibody c23.5 (IgG2a, kappa) (antibody, V domains shown) VH: EVQLQESGGGLVKPGGSLKLSCAASGFTFSIYGMSWFRQTPEKRLEWVATISGGDTYTYYPDSVKGRFTISRDNAKNNLFLQMSSLRSEDTALYFCGRGIAYWGQGTLVTVSA VL: DIVLTQSPASQSASLGESVTITCLASQTIGTWLPWYQQKLGKSPQLLIYAATSLADGVPSRFSGSGSATKFSFKISSLQAEDFVSYNCQHLYSTPLTFGGGTKL |
